Reference: US20190225669A1

T1: BMP7, P18075
T1 chain: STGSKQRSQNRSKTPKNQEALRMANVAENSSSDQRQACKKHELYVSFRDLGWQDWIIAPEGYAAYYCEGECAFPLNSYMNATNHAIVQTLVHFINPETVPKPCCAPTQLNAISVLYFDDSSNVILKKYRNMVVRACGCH


Experiments:
Details in all cases: remark: other sources report otherwise
[1] = target: T1, BMP7, P18075; assay: Biacore SPR
[2] = target: GDF8, O14793; assay: Biacore SPR; † very low signal
[3] = target: GDF8, O14793; assay: Biacore SPR

Chain of GDF8, O14793 (O14793 267-375 limits assumed): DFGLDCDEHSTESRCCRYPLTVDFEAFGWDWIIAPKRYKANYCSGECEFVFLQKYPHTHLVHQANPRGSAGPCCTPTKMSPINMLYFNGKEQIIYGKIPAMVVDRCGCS

Kd [1] [nM] | koff [1] [s⁻¹] | kon [1] [M⁻¹ s⁻¹] | Kd [2] [nM] | koff [3] [s⁻¹] | kon [3] [M⁻¹ s⁻¹] | Binder
15 | 0.018 | 1.2e+06 |  |  |  | ALK3-Fc homodimer, P36894 24-152 (Fc fusion, UniProt P36894 24-152, looked up, not shown: a dimerising Fc or GST) QNLDSMLHGTGMKSDSDQKKSENGVTLAPEDTLPFLKCYCSGHCPDDAINNTCITNGHCFAIIEEDDQGETTLASGCMKYEGSDFQCKDSPKAQLRRTIECCRTNLCNQYLQPTLPPVVIGPFFDGSIR
 |  |  | 15 | 0.0019 | 130000 | ALK4-Fc homodimer, P36896 24-126 (Fc fusion, UniProt P36896 24-126, looked up, not shown: a dimerising Fc or GST) SGPRGVQALLCACTSCLQANYTCETDGACMVSIFNLDGMEHHVRTCIPKVELVPAGKPFYCLSSEDLRNTHCCYTDYCNRIDLRVPSGHLKEPEHPSMWGPVE
